Here are results for 31 sequences from the Immune Epitope Database (IEDB).

Settings in all cases: source organism: Influenza A virus
Assay [1] concerns the target HLA-B*18:01. The assay is described as follows: IEDB peptide-MHC binding, purified MHC/competitive/fluorescence; ≥ and ≤ were set here for values at or beyond the usual limits of such assays.
The target in assay [2] is HLA-B*40:01. The description is as above.
Assay [3] has as its target HLA-B*44:02. Described as above.
Assay [4] addresses HLA-B*44:03. Described as above.
For assay [5], the target named is HLA-B*40:02. The assay is described as follows: IEDB peptide-MHC binding, purified MHC/competitive/radioactivity; ≥ and ≤ were set here for values at or beyond the usual limits of such assays.
The target of assay [6] is HLA-B*45:01. Described as above.
Assay [7] deals with HLA-B*40:02. The assay is described as follows: IEDB peptide-MHC binding, purified MHC/competitive/fluorescence; ≥ and ≤ were set here for values at or beyond the usual limits of such assays.
For assay [8], the target named is HLA-B*45:01. The assay is described as above.
Assay [9] addresses HLA-B*44:02. The assay is described as follows: IEDB peptide-MHC binding, purified MHC/competitive/radioactivity; ≥ and ≤ were set here for values at or beyond the usual limits of such assays.
Assay [10] concerns the target HLA-B*44:03. Described as above.
For assay [11], the target named is HLA-B*40:01. The description is as above.
Assay [12] deals with HLA-A*26:01. The assay is described as follows: IEDB peptide-MHC binding, purified MHC/competitive/fluorescence; ≥ and ≤ were set here for values at or beyond the usual limits of such assays.
The target of assay [13] is HLA-A*30:02. The description is as above.
For assay [14], the target named is HLA-A*01:01. The experiment in a line: IEDB peptide-MHC binding, purified MHC/competitive/radioactivity; ≥ and ≤ were set here for values at or beyond the usual limits of such assays.
Assay [15] addresses HLA-A*29:02. The assay is described as above.
For assay [16], the target named is HLA-A*02:02. The assay is described as follows: IEDB peptide-MHC binding, purified MHC/competitive/fluorescence; ≥ and ≤ were set here for values at or beyond the usual limits of such assays.
Assay [17] has as its target HLA-A*02:06. The assay is described as above.
The target of assay [18] is HLA-A*02:01. The assay is described as follows: IEDB peptide-MHC binding, purified MHC/competitive/radioactivity; ≥ and ≤ were set here for values at or beyond the usual limits of such assays.
Assay [19] has as its target HLA-A*02:03. Described as above.
Assay [20] concerns the target HLA-B*18:01. Described as above.
The target of assay [21] is HLA-A*02:02. Described as above.
Assay [22] addresses HLA-A*02:06. The description is as above.
For assay [23], the target named is HLA-A*68:02. The assay is described as above.
The target in assay [24] is HLA-A*02:01. The assay is described as follows: IEDB peptide-MHC binding, purified MHC/competitive/fluorescence; ≥ and ≤ were set here for values at or beyond the usual limits of such assays.
Assay [25] deals with HLA-A*68:02. Described as above.
The target in assay [26] is HLA-A*03:01. The assay is described as follows: IEDB peptide-MHC binding, purified MHC/competitive/radioactivity; ≥ and ≤ were set here for values at or beyond the usual limits of such assays.
Assay [27] deals with HLA-A*31:01. The assay is described as above.
For assay [28], the target named is HLA-A*23:01. Described as above.
Assay [29] addresses HLA-A*24:02. The assay is described as above.
In assay [30] the target is HLA-A*02:03. The experiment in a line: IEDB peptide-MHC binding, purified MHC/competitive/fluorescence; ≥ and ≤ were set here for values at or beyond the usual limits of such assays.
The target of assay [31] is HLA-A*33:01. The assay is described as above.
In assay [32] the target is HLA-A*03:01. The assay is described as above.
Assay [33] concerns the target HLA-A*11:01. Described as above.
The target in assay [34] is HLA-A*33:01. The assay is described as follows: IEDB peptide-MHC binding, purified MHC/competitive/radioactivity; ≥ and ≤ were set here for values at or beyond the usual limits of such assays.
The target of assay [35] is HLA-A*68:01. Described as above.
In assay [36] the target is HLA-A*11:01. The description is as above.
Assay [37] has as its target HLA-A*01:01. The experiment in a line: IEDB peptide-MHC binding, purified MHC/competitive/fluorescence; ≥ and ≤ were set here for values at or beyond the usual limits of such assays.
Assay [38] has as its target HLA-A*26:01. The experiment in a line: IEDB peptide-MHC binding, purified MHC/competitive/radioactivity; ≥ and ≤ were set here for values at or beyond the usual limits of such assays.
For assay [39], the target named is HLA-A*30:02. The assay is described as above.
For assay [40], the target named is HLA-A*31:01. The experiment in a line: IEDB peptide-MHC binding, purified MHC/competitive/fluorescence; ≥ and ≤ were set here for values at or beyond the usual limits of such assays.
The target of assay [41] is HLA-A*68:01. The description is as above.
Assay [42] has as its target HLA-A*29:02. The description is as above.

In general, IC50 refers to the concentration at which inhibition is half-maximal. As to AEIMKICST, the IC50 in assay [1] worked out at 28.2 µM; in [2], 34.2 µM; in assay [3], 5.12 µM; in assay [4], 11.7 µM; in [5] it was 13 nM; in assay [6], 139 nM.

AEKPKFLPDLY: the IC50 is 34.7 µM in [1]; 10.9 µM in [2]; 4780 nM in assay [7]; 2.93 µM in assay [8]; 412 nM in assay [9]; 1440 nM in [10].

For the sequence AESRKLLLI, the IC50 in [1] is 33.1 µM; in assay [11], 535 nM; in assay [5], 220 nM; in assay [9], 55 nM; in assay [10] it was 179 nM; in [6], 167 nM.

Regarding ALASCMGLIY, the concentration for half-maximal inhibition (IC50) was determined as 2.18 µM in assay [12], 2520 nM in assay [13], 998 nM in [14] and 12 nM in assay [15].

Consider ALQLLLEV, for which the IC50 in assay [16] was 1440 nM; in assay [17], 2.2 µM; in assay [18], 662 nM; in assay [19] it was 256 nM.

Regarding CEKLEQSGL, the IC50 in assay [1] turned out to be 43.1 µM; in assay [2], 1.49 µM; in assay [4], 2.96 µM; in assay [5] it was 164 nM; in assay [9] it was 154 nM; in assay [6], 359 nM.

On to CELTDSSWI, for which the IC50 in assay [1] stood at 56.8 µM; in [7] it was 1410 nM; in [11], 888 nM; in assay [9], 35 nM; in [10], 163 nM; in [6], 139 nM.

Regarding FEDLRVSSF, the IC50 in assay [2] came to 13 µM; in assay [7], 1320 nM; in assay [4], 8.99 µM; in assay [20] it was 59 nM; in assay [9] it was 396 nM.

Take FESKSMKL: the half-maximal inhibitory concentration (IC50) in [1] turned out to be 2.5 µM; in [2], 1.23 µM; in assay [3], 23.6 µM; in assay [4], 66.4 µM; in assay [8], 53.7 µM; in assay [5], 212 nM.

Turning to FNMLSTVLGV, the IC50 in assay [18] was 15 nM.

For FSMELPSFGV, in [18], the IC50 came to 9.5 nM.

As to FVEALARSI, the IC50 amounted to 35 nM in assay [21], 457 nM in [19], 668 nM in assay [22] and 984 nM in [23].

For GLIYNRMGA, the IC50 in [16] was 6560 nM; in assay [17], 25.6 µM; in assay [19], 273 nM.

Consider ILGFVFTL, for which the IC50 in assay [21] amounted to 2.6 nM; in assay [19], 11 nM; in [22] it was 319 nM.

On to ILSPLTKGIL, for which the IC50 was 10.5 µM in assay [24]; 26 µM in assay [17]; 13.3 µM in assay [25]; 159 nM in assay [21]; 129 nM in assay [19].

Consider ITFMQALQLL, for which the IC50 worked out at 8.18 µM in [17], 125 nM in assay [21], 856 nM in assay [19] and 759 nM in [23].

Take KTRPILSPLTK: the IC50 in assay [26] amounted to 96 nM; in assay [27], 70 nM.

In the case of LLFLKVPA, the IC50 in assay [17] was determined as 13.3 µM; in assay [25] it was 23 µM; in assay [21] it was 133 nM; in assay [19], 279 nM.

For LYRKLKREITF, the IC50 in assay [28] worked out at 195 nM; in [29], 206 nM.

Turning to QIAILVTTV, the IC50 in assay [25] stood at 2.22 µM; in assay [21] it was 150 nM; in assay [19], 73 nM; in assay [22], 691 nM.

For the sequence QLMWALGENMA, the IC50 in [30] was 1350 nM; in assay [17], 24.4 µM; in assay [25], 2.27 µM; in [21], 357 nM.

For QLVWMACHSAA, the IC50 in assay [16] amounted to 2740 nM; in assay [25] it was 21.5 µM; in [19] it was 354 nM.

For the sequence RMVLASTTAK, in assay [31], the IC50 was determined as 5.88 µM.

RMVLSAFDER: the IC50 in [32] was 5.84 µM; in assay [33], 2240 nM; in assay [27], 336 nM; in assay [34], 897 nM; in assay [35] it was 631 nM.

For the sequence RTMAWTVVNSI, the IC50 is 4.51 µM in assay [17], 1.52 µM in assay [25], 126 nM in assay [21] and 70 nM in [19].

For SFSFGGFTFK, the 50% inhibitory concentration (IC50) in assay [26] was 188 nM; in assay [36], 160 nM; in assay [27], 82 nM; in assay [34], 168 nM; in assay [35], 427 nM.

Consider SWPDGAELPF, for which the IC50 in [28] came to 469 nM; in [29] it was 778 nM.

In the case of TFEFTSFFY, the IC50 in [37] came out at 12 µM; in [38], 399 nM; in [15], 0.1 nM; in assay [39], 422 nM.

On to TLARSICEK, for which the IC50 was 8.12 µM in [40], 1460 nM in assay [41], 127 nM in assay [26] and 276 nM in assay [36].

Consider VSDGGPNLY, for which the IC50 came to 25.7 µM in [12], 2120 nM in assay [42] and 2210 nM in assay [13].

For the sequence YERMCNILKG, the IC50 in assay [2] turned out to be 2.22 µM; in assay [3] it was 1.86 µM; in assay [4], 3 µM; in assay [8] it was 19.8 µM; in assay [20], 711 nM; in assay [5] it was 143 nM.
